We go through two substances from US20140377289A1, “Metallodrugs Having Improved Pharmacological Properties, and Methods of Manufacture and Use Thereof” (MetalloPharm, LLC, priority 2011, published 2014).

Assay [1] has as its target Recombinant human somatic ACE (sACE-1: Leu30-Leu1261, with C-terminal His tag) (human) (UniProt P12821). The experiment in a line: cell-based or functional assay.
For assay [2] the target is unchanged. Description: affinity calculated from the IC50 of sACE-1 inhibition (fluorogenic substrate cleavage, 37 C, pH 7.4).
Assay [3] addresses HCV protease (hepatitis C virus (HCV)). Description: affinity of metallopeptide for HCV protease; method not described.

Where no end group is shown, it is not given here.

Recombinant human somatic ACE (sACE-1: Leu30-Leu1261, with C-terminal His tag) (human), sequence (P12821 30-1261 limits assumed): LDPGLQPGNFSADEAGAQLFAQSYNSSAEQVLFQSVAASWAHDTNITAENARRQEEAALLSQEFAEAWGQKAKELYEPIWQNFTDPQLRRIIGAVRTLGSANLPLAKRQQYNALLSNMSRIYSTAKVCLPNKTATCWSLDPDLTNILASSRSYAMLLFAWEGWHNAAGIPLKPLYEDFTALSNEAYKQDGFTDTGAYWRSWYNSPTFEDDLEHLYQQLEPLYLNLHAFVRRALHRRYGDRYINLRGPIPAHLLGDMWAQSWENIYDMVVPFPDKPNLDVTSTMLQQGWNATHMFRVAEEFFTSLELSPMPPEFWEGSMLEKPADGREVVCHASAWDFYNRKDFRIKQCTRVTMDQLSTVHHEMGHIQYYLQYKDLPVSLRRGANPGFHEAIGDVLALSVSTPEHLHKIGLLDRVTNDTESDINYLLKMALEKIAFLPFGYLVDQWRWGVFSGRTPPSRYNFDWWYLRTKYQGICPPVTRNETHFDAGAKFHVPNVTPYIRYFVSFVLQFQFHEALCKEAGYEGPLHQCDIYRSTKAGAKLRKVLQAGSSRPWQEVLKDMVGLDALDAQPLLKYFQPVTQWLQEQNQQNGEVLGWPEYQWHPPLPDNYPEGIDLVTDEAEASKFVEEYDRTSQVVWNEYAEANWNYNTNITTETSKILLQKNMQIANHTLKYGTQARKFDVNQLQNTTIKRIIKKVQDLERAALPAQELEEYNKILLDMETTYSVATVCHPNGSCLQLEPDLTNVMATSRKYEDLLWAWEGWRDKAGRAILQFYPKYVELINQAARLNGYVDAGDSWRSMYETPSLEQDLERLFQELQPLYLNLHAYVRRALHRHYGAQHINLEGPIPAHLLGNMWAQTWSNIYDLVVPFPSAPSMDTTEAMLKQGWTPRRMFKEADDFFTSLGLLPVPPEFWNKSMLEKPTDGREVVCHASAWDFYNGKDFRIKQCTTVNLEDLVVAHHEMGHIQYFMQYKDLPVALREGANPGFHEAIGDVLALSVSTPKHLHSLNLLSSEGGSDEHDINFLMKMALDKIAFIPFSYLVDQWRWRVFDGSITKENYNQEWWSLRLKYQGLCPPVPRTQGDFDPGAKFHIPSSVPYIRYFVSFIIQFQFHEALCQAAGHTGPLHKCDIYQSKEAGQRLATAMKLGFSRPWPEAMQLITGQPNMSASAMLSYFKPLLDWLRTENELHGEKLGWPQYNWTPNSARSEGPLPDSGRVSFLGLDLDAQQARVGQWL

With [Cu-GGH]^1- (peptide), the IC50's (nM) for sACE-1 inhibition (fluorogenic substrate cleavage) in assay [1] came out at 17000 nM. For the same substance, the Ka in assay [2] was 59000 M⁻¹.
Regarding GGHDEMEEC, the affinity in assay [3] was found to be 48 µM.
